Ends that are not written are not given here.
B1: human TSP1.V5 (thrombospondin-1 with V5 tag) (natural protein)
chain: not shown
notes: human thrombospondin-1 (TSP1); calculated monomer molecular weight of TSP1.V5 132.3 kDa
B2: HsTSP1cc, synthetic peptide of the trimerizing coiled-coil domain of human TSP1 (residues 275-314 of TSP1) (peptide)
peptide: Ac-GDELSSMVLELRGLRTIVTTLQDSIRKVTEENKELANELRRGW
notes: added residue before the TSP1 stretch; human thrombospondin-1 (TSP1), coiled-coil domain, residues 275-314; added residues after the TSP1 stretch (the Trp is used to measure concentration at 280 nm); 43-mer; Made on Rink amide resin, so the C-terminus is probably an amide (surmised); source: synthetic peptide (Fmoc solid phase on Rink amide resin), purified by RP-HPLC

Columns and labels:
[1] = target: the molecule itself; test: non-reducing SDS-PAGE and immunoblot; V5-tagged proteins from conditioned media of transfected COS7 cells, collected on Talon resin, boiled in SDS sample buffer without DTT; 7% SDS-polyacrylamide gels; V5 antibody blot
[2] = target: the molecule itself; test: AUC; sedimentation equilibrium; HsTSP1cc 50 uM in PBS, 20 °C, 20,000-50,000 rpm; fitted to a single, ideal species model

Row | Protein | stoichiometry N [1] | stoichiometry N [2]
1 | B1 | 3 | 
2 | B2 |  | 2.96 x monomer mass
